What was measured:
[1] = tested on: CAR molecule on the surface of T cells; assay: Staining for surface expression of CAR after secondary expansion; assay type: cell-based, human; conditions: DKO cells
Source text: After secondary expansion, cells (Mock (WT T cells), WT CAR-T cells, DKO CAR-T cells, DKO CAR-T cells+CD2z CSR, and DKO CAR-T cells+CD28z CSR) were stained for the surface-expression of CAR and compared to control WT CAR-T cells and Mock T cells.

purified DKO CAR-T cells = assay: Re-stimulation and secondary expansion of purified DKO CAR-T cells, with or without IL7 and IL15; assay type: cell-based, human; conditions: 14 day culture; re-stimulation
Protocol: After initial genetic modification and a first round of stimulation and expansion, cells from each group (Mock (WT CAR-T cells), DKO CAR-T cells, DKO CAR-T cells+CD2z CSR, and DKO CAR-T cells+CD28z CSR) were purified for TCR^−MHCI^− cells using magnetic beads. The purified cells were then re-stimulated using anti-CD2, anti-CD3, and anti-CD28 agonist mAbs. At the end of the 14 day culture period, TCR and MHCI expression (A) as well as magnitude of cell population expansion (B) was determined. After this secondary expansion, all purified DKO cells, including those expressing either CD2z or CD28z CSR, were still extremely pure for DKO cells (>98.8% DKO).
FIG. 11 is a graph showing that cytokine supplementation can further expand purified DKO CAR-T cells expressing CSR upon re-stimulation. After initial genetic modification and a first round of stimulation and expansion, cells expressing CSRs were purified for DKO cells using magnetic beads. The purified cells were then re-stimulated using anti-CD2, anti-CD3, and anti-CD28 agonist mAbs in the presence exogenous purified recombinant IL7 and IL15. At the end of the 14 day culture period, magnitude of cell population expansion was determined. After a secondary expansion, all purified DKO cells, including those expressing either CD2z or CD28z CSR, were still extremely pure for TCR^−MHCI^− cells (>98.8% double knockout (data not shown)). […]

eK562-Luc.BCMA = assay: Luciferase killing assay, 48 hour co-culture; assay type: cell-based; conditions: 10:1, 3:1, 1:1 E:T
Protocol: After secondary expansion, cells (Mock (WT T cells), WT CAR-T cells, DKO CAR-T cells, DKO CAR-T cells+CD2z CSR, and DKO CAR-T cells+CD28z CSR) were co-cultured with engineered K562-BCMA-Luciferase (eK562-Luc.BCMA) or negative control line K562-PSMA-Luciferase (eK562-Luc.PSMA) for 48 hours at 10:1, 3:1, or 1:1 E:T ratios. Luciferase signal was measured to determine cytotoxicity. Killing of eK562-Luc.PSMA is shown in dotted lines, while killing of eK562-Luc.BCMA is shown in solid lines. All CAR^+ T cells expressed an anti-BCMA specific CAR.
CSRs were delivered to CAR-T cells either transiently by mRNA or stably by piggyBac®. Pan T cells isolated from the blood of a normal donor were genetically modified using the piggyBac® DNA modification system and the standard Poseida process. Cells were co-electroporated in a single reaction with mRNA encoding the Super piggyBac™ transposase enzyme (SPB), a transposon encoding a BCMA CAR and selection gene, along with an additional mRNA encoding a CSR (either CD28z or CD2z; resulting in transient expression), or, with a transposon encoding a BCMA CAR, selection gene and a CSR (either CD28z or CD2z; resulting in stable expression). The cells were subsequently stimulated with agonist mAbs anti-CD2, anti-CD3 and anti-CD28, and were later selected for genetic modification over the course of a 19 day culture period. At the end of the initial culture period all T cells expressed the CAR, indicating successful selection for genetically-modified cells (data not shown). To assess CAR-T cell ability to kill, cells were co-cultured with engineered K562-BCMA-Luciferase (eK562-Luc.BCMA) or negative control line K562-Luciferase (eK562-Luc) for 48 hours at 10:1, 3:1, or 1:1 E:T ratios. Luciferase signal was measured to determine cytotoxicity. Killing of eK562-Luc is shown in bar graph on left, while killing of eK562-Luc.BCMA is shown in bar graph on right.

Pan T cells = assay: Surface expression of CSR and cellular activation (FSC-A, CD69) after mRNA electroporation of T cells; assay type: cell-based, human; conditions: for cellular activation (FSC-A, CD69): absence of exogenous stimulation; for surface expression by flow cytometry: two days after electroporation of 10 μg mRNA
Protocol: Pan T cells from normal blood donors were stimulated with anti-CD3/anti-CD28 beads in standard T cell culture media, then rested. These cells were then electroporated (BTX ECM 830 electroporator @ 500V for 700 μs) with 10 μg of mRNA encoding either CD28 CSR, CD2 CSR, or wild-type CD19 control. Two days later the electroporated cells were examined by flow cytometry for surface-expression of each molecule and data are shown as stacked histograms. In addition, cell size (FSC-A) and CD69 expression was evaluated as a possible indication of cellular activation above the Mock electroporated control cells.

DKO CAR-T cells = assay: Expansion of TCRb/b2M double-knockout (DKO) CAR-T cells after stimulation with agonist mAbs anti-CD2, anti-CD3 and anti-CD28; assay type: cell-based, human; conditions: 16 day culture; CSR delivered in piggyBac transposon
Source text: FIGS. 9A-9B are a series of plots showing that piggyBac® delivery of CSR enhances the expansion of TCRb/b2M double-knockout CAR-T cells. Pan T cells isolated from normal donor blood were genetically modified using the piggyBac® DNA modification system in combination with the Cas-CLOVER™ gene-editing system. Cells were electroporated in a single reaction with a transposon encoding a CAR, selection gene and a CSR (either CD28z or CD2z), an mRNA encoding the super piggyBac™ transposase enzyme, an mRNA encoding Cas-CLOVER™, and multiple guide RNA (gRNA) targeting TCRb and b2M in order to knockout the TCR and MHCI (double-knockout; DKO). The cells were subsequently stimulated with agonist mAbs anti-CD2, anti-CD3 and anti-CD28, and were later selected for genetic modification over the course of a 16 day culture period. At the end of the initial culture period all T cells expressed the CAR, indicating successful selection for genetically-modified cells (data not shown).

[2] = CAR-T cells with transient (mRNA) or stable (piggyBac) CSR

## CD28z CSR: chimeric stimulatory receptor: CD28 signal peptide, extracellular, transmembrane and cytoplasmic domains with CD3z intracellular domain (SEQ ID NO: 17060)
[1]
  surface expression of CAR: does not have a significant impact
Purified DKO CAR-T cells
  magnitude of cell population expansion compared to those not expressing either CSR: enhanced expansion
eK562-Luc.BCMA; [2]
  in vitro cytotoxicity (luciferase signal): not significantly affected
eK562-Luc.BCMA; DKO CAR-T cells
  in vitro cytotoxicity (luciferase signal): not significantly affected
Pan T cells
  cellular activation (FSC-A, CD69): did not intrinsically activate the cells
  surface expression by flow cytometry: Increased surface expression
DKO CAR-T cells
  expansion of the cells in comparison to DKO CAR-T cells alone: at least a two fold expansion

B1: CD2z CSR: chimeric stimulatory receptor: CD2 signal peptide, extracellular, transmembrane and cytoplasmic domains with CD3z intracellular domain (SEQ ID NO: 17062) (protein)
chain: MSFPCKFVASFLLIFNVSSKGAVSKEITNALETWGALGQDINLDIPSFQMSDDIDDIKWEKTSDKKKIAQFRKEKETFKEKDTYKLFKNGTLKIKHLKTDDQDIYKVSIYDTKGKNVLEKIFDLKIQERVSKPKISWTCINTTLTCEVMNGTDPELNLYQDGKHLKLSQRVITHKWTTSLSAKFKCTAGNKVSKESSVEPVSCPEKGLDIYLIIGICGGGSLLMVFVALLVFYITKRKKQRSRRNDEELETRAHRVATEERGRKPHQIPASTPQNPATSQHPPPPPGHRSQAPSHRPPPPGHRVQHQPQKRPPAPSGTQVHQQKGPPLPRPRVQPKPPHGAAENSLSPSSNRVKFSRSADAPAYKQGQNQLYNELNLGRREEYDVLDKRRGRDPEMGGKPRRKNPQEGLYNELQKDKMAEAYSEIGMKGERRRGKGHDGLYQGLSTATKDTYDALHMQALPPR
[1]
  surface expression of CAR: does not have a significant impact
Purified DKO CAR-T cells
  magnitude of cell population expansion compared to those not expressing either CSR: enhanced expansion
eK562-Luc.BCMA; [2]
  in vitro cytotoxicity (luciferase signal): not significantly affected
eK562-Luc.BCMA; DKO CAR-T cells
  in vitro cytotoxicity (luciferase signal): not significantly affected
Pan T cells
  cellular activation (FSC-A, CD69): did not intrinsically activate the cells
  surface expression by flow cytometry: Increased surface expression
DKO CAR-T cells
  expansion of the cells in comparison to DKO CAR-T cells alone: at least a two fold expansion

Reference: US20220389077A1, “ALLOGENEIC CELL COMPOSITIONS AND METHODS OF USE” (Poseida Therapeutics, Inc., priority 2018, published 2022)
